In the RNAGym collection of RNA variant scans (doi:10.1073/pnas.2313332121):

B1: TPR t1 (parent)
chain: GACCAAUCUGCCCUCAGAGCUCGAGAACAUCUUCGGAUGCAGAGGAGGCAGGCUUCGGUGGCGCGAUAGCGCCAACGUCCUCAACCUCCAAUGCAUCCCACCACAUGAUGAUGCCUGAAGAGCCUUGGUUUUUUG

Variants of: B1
Assay: polymerase ribozyme fitness, log enrichment relative to wild type (log ratio); higher = more active; in vitro selection for triplet polymerase activity
Summary of the method: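 Mutant libraries for each subunit of a heterodimeric triplet polymerase ribozyme were made by PCR and then transcribed. Each library underwent one round of in vitro selection in triplicate: annealing with a biotinylated primer, the partner subunit and triplets, frozen incubation at −7 °C, gel excision of extended constructs, streptavidin-bead capture and RT-PCR. Input and output libraries were Illumina-sequenced, and only genotypes with ≥10 input reads and ≥1 read per output were kept. Fitness is the logarithm, base 2, of genotype enrichment over wild-type enrichment, computed from inverse-variance-weighted replicate averages.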

Row | Variant | polymerase ribozyme fitness (log ratio)
1 | GACCAAUCUGCCCUCAGAUCUCGAGAACAUCUUCGGAUGCAGAGGAGGCAGGCUUCGGUGGCGCGAUAGCGCCAACGUCCUCAACUUCCAAUGCAUCCCACCACAUGAUGAUGCCUGAAGAGCCUUGGUUUUUUG [G19U C86U] | -2.9
2 | GACCAAUCUGCCCUCAGAUCUCGAGAACAUCUUCGGAUGCAGAGGAGGCAGGCUUCGGUGGCGUGAUAGCGCCAACGUCCUCAACCUCCAAUGCAUCCCACCACAUGAUGAUGCCUGAAGAGCUUUGGUUUUUUG [G19U C64U C124U] | -2.27
3 | GACCAAUCUGCCCUCAGAUCUCGAGAACAUCUUCGGAUGCAGAGGAGGCAGGCUUCGGUGGCGCGAUAGCACCAACGUCCUCAACCUCCAAUGCAUCCCACCACAUGAUGAUGCCUGGAGAGCCUUGGUUUUUUG [G19U G71A A118G] | -6.34
4 | GACCAAUCUGCCCUCAGAGAUCGAGAACAUCUUCGGAUGCAGAGGAGGCAGGUUUCGGUGGCGCGAUAGCGCCAACGUCCUCAACCACCAAUGCAUCCCACCACAUGAUGAUGCCUGAAGAGCCUUGGUUUUUUG [C20A C53U U87A] | -3.21
5 | GACCAAUCUGCCCUCAGAUCUCGAGAACAUCUUCGGAUGCAGAGGAGGCAGGCUUCGGUGGCGCGAUAACGCCAACGUCCUCAACCUCCAAUGCAUCCCACCACAUGAUGAUGCCUGAAGAGCCUUGGUUUUUUG [G19U G69A] | -3.8
6 | GACCAAUCUGCCCUCAGAUCUCGAGAACAUCUUCGGAUGCAGAGGAGGCAGGCUUCGGUGGCGCGAUACCGCCAACGUCCUCAACCUCCAAUGCAUCCCACCACAUGAUGAUGCCUGAAGAGCCUUGGUUUUUUG [G19U G69C] | -4.45
7 | GACCAAUCUGCCCUCAGAGAUCGAGAGCAUCUUCGGAUGGAGAGGAGGCAGGCUCCGGUGGCGCGAUAGCCCCAACGUCCUCAACCUCCAAUGCAUCCCACCACAUGAUGAUGCCUGAAGAGCCUUGGUUUUUUG [C20A A27G C40G U55C G71C] | -4.12
8 | GACCAAUCUGCCCUCAGAUCUCGAGAACAUCUUCGGAUGCAGAGGAGGCAGGCUUCGGUGGCGCGAUAGUGCCAACGCCCUCAACCUUCAAUGCAUCCCACCACAUGAUGAUGCCUGAAGAGCCUUGGUUUUUUG [G19U C70U U78C C88U] | -3.57
9 | GACCAAUCUGCCCUCAGAUCUCGAGAACAUCUUCGGAUGCAGAGGAGGCAGGCUGCGGUGGCGCGAUAGCGCCAACGUCCUCAACCGCCAAUGCCUCCCACCACAUGAUGACGACUGAAGAGCCUUGGUUUUUUG [G19U U55G U87G A95C U112C C114A] | 0.393
10 | GACCAAUCUGCCCUCAGAGAUCGAGAACAUCUUCGGAUGCAGCGGAGGCAGGCUUCGGUGGCGCGAUAGCGCCAACGUCCUCAACCUCCAAUGUAUCCCACCACAUGAUGAUGCCUGAAGAGCCUUGGUUUUUUG [C20A A43C C94U] | -4.19
11 | GACCAAUCUGCCCUCAGAUCUCGAGAACAUCUUCGGAUGCAGAGGAGGCAGGCUUCGGUGGCGCGAUAGCGCCAACGUCCUCAACCUCCAAUGCAUCCCACCACAUGAUGAUGCCUGAAGAUACUUGGAUUUUUG [G19U G122U C123A U129A] | -4.23
12 | GACCAAUCUGCCCUCAGAUCUCGAGAACAUCUUCGGAUGCAGAGGAGGCAGGCUUCGGUGGCGCGAUAGCGCCAACGUCCUCAACCUCCAAUGCAUCCCACCACAUAAUGAUGCCUGAAAAGCCAUGGUUUUUUG [G19U G107A G120A U125A] | -7.29
13 | GACCAAUCUGCCCUCAGAUCUCGAGAACAUCUUCGGAUGCAGAGUAGGCAGGCUUCGGUUGCGCGAUAGCGCCAACGUCCUCAACCUCCAAUGCAUCCCACCACAUGAUGAUGCCUGAUGAGCCUUGGUUUUUUG [G19U G45U G60U A119U] | -5.1
14 | GACCAAUCUGCCCUCAGAGAUCGAGAAUAUCUUCGGAUGCAGAGGAGGCAGGCUUCGGUGGUGCGAUAGCGCCAACGUCCUCAACCUCCAAUGCAUCCCAACACAUGAUGAUACCUGAAGAGCCUUGGUUUUUUG [C20A C28U C62U C101A G113A] | -6.69
15 | GACCAAUCUGCCCUCAGAUCUCGAGAACAUCUUCGGAUGCAGAGGAGGCAGGCUUAGGUGGCGCGAUAGCGCCAACGUCCUCAACCUCCAAUGCAUCCCACCACAUGAUGAUCCCUGAAGAGCCUUGGUUUUUUG [G19U C56A G113C] | -3.24
16 | GACCAAUCUGCCCUCAGAGAUCGAGAACAUCUUCGGAUGCAGAGGAGGCAGGCUUUGGUGGCGCGAUAGCGCCAACGUCCUCAACCUCCAAUGCAGCCCACCACAUGAUGAUGCCUGAAGAGCCUUGGUUUUUUG [C20A C56U U96G] | -3.51
17 | GACCAAUCUGCCCUCAGAUCUCGAGAACAUCUUCGGAUGCAGAGGAGGCAAGCUUCGGUAGCGCGAUAGCGCCAACCUCCUCAACCUCCAAUGCAUCCCACCACAUGAUGAUUCCUGAAGAGCCUUGGUUUUUUG [G19U G51A G60A G77C G113U] | -6.6
18 | GACCAAUCUGCCCUCAGAUCUCGAGAACAUCUUCGGAUGCAGAGGAGGCAGGCUUCGCUGGCGCGAUAGCGCCAACGUCCUCAACCUCCAAUGCAUCCCACCACAUGAUGAUGCCUGAAGAGCCUUGGUUUUUUG [G19U G58C] | -4.22
19 | GACCAAUCUGCCCUCAGAGAUGGAGAACAUCUUCGGAUGCAGAGGAGGCAGGCUUCGGUGGCGCGAUAGCGCCAACGUCCUCAACCUCCAAUGCAUCCCACCACAUGAUGAUACCUGAAGAGCCUUGGUUUAUUG [C20A C22G G113A U132A] | -4.93
20 | GACCAAUCUGCCCUCAGAUCUCGAGAACAUCUUCGGAUGCAGAGGAGGCAGGCUUCGGUGACGCGAUAGCGCCAACGUCCUCAACCUCCAAUGCAUCCCACCACAUGAUGAUGCCUGAAGAGCCUUGGUUUUUUG [G19U G61A] | -3.31
21 | GACCAAUCUGCCCUCAGAGAUCGAGAACAUCUUCGGAUGCAGAGGAGGCAGGCUUCGGUGGCGCGAUAGCGCCUACGUCCUCAACCUCCAAUGCAUCCCACCACAUGAUGAUGCCUGAAGAGCCUUGGUUUUUUG [C20A A74U] | -3.01
